Kd data for two molecules are collected here from patent US20130172533A1 (INDUSTRIAL TECHNOLOGY RESEARCH INSTITUTE, published 2013).

The test concerns the target T1, human CD34 surface antigen on KG1a cells (human, UniProt P28906 32-385).
T1 construct: whole, on cells; The target was always presented on KG1a cells; No recombinant CD34 was used; also called surface antigen CD34; CD34 antigen
T1 sequence (looked up): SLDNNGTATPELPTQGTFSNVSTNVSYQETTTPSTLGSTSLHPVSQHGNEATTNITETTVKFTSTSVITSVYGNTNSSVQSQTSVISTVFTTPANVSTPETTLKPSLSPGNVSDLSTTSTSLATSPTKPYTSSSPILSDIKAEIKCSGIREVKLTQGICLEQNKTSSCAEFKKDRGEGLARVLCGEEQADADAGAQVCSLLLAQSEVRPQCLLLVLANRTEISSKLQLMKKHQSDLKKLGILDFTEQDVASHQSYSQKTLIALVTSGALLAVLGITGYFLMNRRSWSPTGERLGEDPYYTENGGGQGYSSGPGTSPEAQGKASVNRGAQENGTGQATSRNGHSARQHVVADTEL
Briefly: flow cytometry, antibody titration on CD34+ KG1a cells. On the procedure:
KG1a cells expressing the surface antigen CD34 were used for determining the antibody binding affinity. The antibody in aliquots were individually added into KG1a cells (about 1×10⁶ cells) and reacted at 4° C. for 1 hour. The cells were washed with the FACS buffer (DPBS buffer with 2% fetus bovine serum) three times and then treated with the goat anti-mouse IgG (H+L) Alexa Fluor 488 responsive to mMy10 IgG and the goat anti-human IgG (H+L) Alexa Fluor 647 responsive to hMy10 IgG at 4° C. for 1 hour. The cells were further washed with the FACS buffer and analyzed under the FACSCalibur flow cytometer.
For determining the binding affinity of hMy10 IgG and mMy10 IgG to the surface antigen CD34 of human stem cells, a KG1a cell line was used as the cell expressing the surface antigen CD34.

Molecule “anti-My10 murine monoclonal antibody (mMy10 IgG)” yielded a Kd of 6.7 nM.

B1: humanized My10 IgG (hMy10 IgG) (antibody, V domains shown)
VH: EVQLVESGGGLVQPGGSLRLSCAVSGFSLTSHGVHWVRQAPGKGLEWLGVIWGAGRTDYNAAFISRLSISRDISKSQVYLQMNSLRAEDTAVYYCARNRYESYFDYWGQGTLVTVSS
VL: DIQMTQSPSSLSASVGDRVTITCRSSQNLVHSNGNTYLHWYQQKPGKAPKLLIYKVSNRFSGVPDRFSGSGSGTEFTLTISSLQPEDFATYYCSQSTHVPLTFGQGTKVEIKR
notes: also called humanized My10 (hMy10) IgG1; humanized anti-human CD34 monoclonal antibody
In the case of B1, the Kd came to 6.9 nM. This Kd and that of the molecule before are within 1.5-fold of each other.
